# B1: PTS system glucose-specific EIICB component (Escherichia coli (strain K12)), P69786 (parent)
# chain: MFKNAFANLQKVGKSLMLPVSVLPIAGILLGVGSANFSWLPAVVSHVMAEAGGSVFANMPLIFAIGVALGFTNNDGVSALAAVVAYGIMVKTMAVVAPLVLHLPAEEIASKHLADTGVLGGIISGAIAAYMFNRFYRIKLPEYLGFFAGKRFVPIISGLAAIFTGVVLSFIWPPIGSAIQTFSQWAAYQNPVVAFGIYGFIERCLVPFGLHHIWNVPFQMQIGEYTNAAGQVFHGDIPRYMAGDPTAGKLSGGFLFKMYGLPAAAIAIWHSAKPENRAKVGGIMISAALTSFLTGITEPIEFSFMFVAPILYIIHAILAGLAFPICILLGMRDGTSFSHGLIDFIVLSGNSSKLWLFPIVGIGYAIVYYTIFRVLIKALDLKTPGREDATEDAKATGTSEMAPALVAAFGGKENITNLDACITRLRVSVADVSKVDQAGLKKLGAAGVVVAGSGVQAIFGTKSDNLKTEMDEYIRNH
# partner: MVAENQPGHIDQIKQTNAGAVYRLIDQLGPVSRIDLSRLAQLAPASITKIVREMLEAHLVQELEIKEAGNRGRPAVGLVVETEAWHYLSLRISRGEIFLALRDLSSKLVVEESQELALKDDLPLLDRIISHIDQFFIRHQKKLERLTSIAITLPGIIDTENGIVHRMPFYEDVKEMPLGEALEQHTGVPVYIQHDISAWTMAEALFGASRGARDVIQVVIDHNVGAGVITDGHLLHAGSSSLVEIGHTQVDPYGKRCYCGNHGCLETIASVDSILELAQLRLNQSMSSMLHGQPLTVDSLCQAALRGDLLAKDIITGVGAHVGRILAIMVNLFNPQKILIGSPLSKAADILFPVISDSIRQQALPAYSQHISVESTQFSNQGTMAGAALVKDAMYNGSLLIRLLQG
# Variants of: B1
# Details: with mlc_ecoli mlc
row,effect of a mutation on the interaction,Variant
1,disrupting interaction,Q456A
2,disrupting interaction,V449Q
3,decreasing interaction,A451F
